The labels stand for the following.
B1: 11892 (antibody, V domains shown)
VH: QSMEESGGRLVTPGTPLTLTCTVSGFSLSIYSMSWVRQAPGKGLEWIGIIYLGDRAYYASWAKGRFTISKTSSTTVDLKITSPTTEDTATYFCARVAGYAGYGYAFYDAFDPWGPGTLVTVSS
VL: DVVMTQTPASVSEPVGGTVTIKCQASQSIGSNLAWYQQKPGQPPKLLIYAASTLASGVPSRFKGSGSGTEFTLTINGVQCDDTATYYCQCTYYANTYVAETFGGGTEVVVK
B2: 11881 (antibody, V domains shown)
VH: B1 VH
VL: B1 VL with N95S
B3: 11886 (antibody, V domains shown)
VH: QSVEESGGRLVTPGTPLTLTCIVSGFSLSNYYMSWVRQVPGKGLEWIGVIGWSGTSSYASWAKGRFTISKTASTTVDLKITSPTTEDTATYFCARVLYIGGGFNYYDAFDPWGPGTLVTVSS
VL: DVVMTQTPASVSEPVGGTVTIKCQASQSIGSNLAWYQQKPGQPPKLLIYAASTLASGVPSRFKGSGSGTEFTLTISDLECADAATYYCQCTYYDSSYVYNNFGGGTEVVVK
B4: 11889 (antibody, V domains shown)
VH: QSLEESGGDLVKPGASLTLTCTASGFSFSSSYWICWVRQAPGKGLEWIACIYAGSSGSTYYASWAKGRFTISKTSSTTVTLQMTSLTAADTATYFCATAYAVSAPFGYTLFKYFELWGPGTLVTVSS
VL: AVVLTQTASPVSAPVGGTVTIKCQASQNIYSDLAWYQQKPGQPPKLLIYDTSNLASGVSSRFKGSRSGTEFTLTISDLECADAATYYCQAYYYSSSSGDTTFGGGTEVVVK

Residue numbers refer to the chain shown, from its start.

This experiment deals with TAFV GP (YP_003815426.1) (Tai Forest Ebola virus, UniProt Q66810 33-676). The experiment is described as follows: flow cytometry on transiently transfected HEK293 cells. For orientation: Flow cytometry measures light scatter and fluorescence of single cells or particles in a stream.
Take B1: the binding result was “binds”.

Turning to B2, the binding result is listed as “binds”.

For B3, the binding result is listed as “binds”.

For B4, the binding result was “binds”.
